1 substance from patent publication US20030162734 can be followed below.

For data set [1], the target named is DENN-JBD (JNK binding domain region of DENN lacking the NLS and DD regions, fused to the C-terminus of EGFP) (UniProt Q8WXG6).
The target of data set [2] is GFP-DENN (full length DENN/MADD fused to the C-terminus of EGFP) (UniProt Q8WXG6).

In the case of “JNK (c-Jun N-terminal kinase), endogenous in NSC19 cells; p54 and p46 isoforms of phosphorylated JNK”, in data set [1], the “p54 band of phosphorylated JNK on Western immunoblot, NSC19 clones, 24 h Aβ exposure” value was “DENN and DENN-JBD affected 3 to 4-fold increase in the p54 band with Aβ exposure”; the “phosphorylated c-Jun (Ser73) on immunoblot, NSC19 clones” value was “Expression of ΔMEKK1, DENN, DENN-CT and DENN-JBD showed sustained levels of phosphorylated c-Jun”. Moreover, the “p54 band of phosphorylated JNK on Western immunoblot, NSC19 clones, 24 h Aβ exposure” value in data set [2] was “DENN and DENN-JBD affected 3 to 4-fold increase in the p54 band with Aβ exposure”.
